Source: patent US20220332804A1 (CSL INNOVATION, published 2022)
Where a chain is given by its changes, count along the chain named.

Legend:
Experiment in all cases: SPR, antibody captured, C2 as analyte;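 further: biacore SPR at 37 °C, anti-C2 mAbs captured via goat anti-human IgG on CM5 chips, double-referenced sensorgrams fit to a 1:1 kinetic or steady-state model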
human C2 G414A = target: T1, human C2 G414A (human, UniProt P06681 21-752)
T1 sequence: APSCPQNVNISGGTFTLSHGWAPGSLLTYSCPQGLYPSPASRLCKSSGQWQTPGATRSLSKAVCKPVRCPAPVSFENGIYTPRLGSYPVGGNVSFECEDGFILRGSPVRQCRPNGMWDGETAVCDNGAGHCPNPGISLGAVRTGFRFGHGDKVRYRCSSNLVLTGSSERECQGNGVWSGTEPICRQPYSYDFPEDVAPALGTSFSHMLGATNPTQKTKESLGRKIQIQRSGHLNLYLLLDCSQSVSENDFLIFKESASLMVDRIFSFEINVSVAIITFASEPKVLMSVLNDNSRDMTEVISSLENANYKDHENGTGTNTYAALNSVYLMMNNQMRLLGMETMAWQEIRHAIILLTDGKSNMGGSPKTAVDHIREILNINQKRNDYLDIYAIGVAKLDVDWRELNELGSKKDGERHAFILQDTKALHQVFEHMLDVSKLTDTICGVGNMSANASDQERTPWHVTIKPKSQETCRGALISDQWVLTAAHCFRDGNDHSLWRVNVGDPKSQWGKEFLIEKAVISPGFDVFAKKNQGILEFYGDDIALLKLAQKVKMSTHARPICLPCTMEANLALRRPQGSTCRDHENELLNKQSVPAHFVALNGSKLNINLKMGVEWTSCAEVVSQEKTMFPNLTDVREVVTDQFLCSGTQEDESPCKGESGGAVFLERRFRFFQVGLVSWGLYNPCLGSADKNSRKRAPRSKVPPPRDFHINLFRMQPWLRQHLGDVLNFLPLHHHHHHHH

human C2 D419A = target: T2, human C2 D419A (human, UniProt P06681 21-752)
T2 sequence: T1 sequence with A394G, D399A

human C2 N424A = target: T3, human C2 N424A (human, UniProt P06681 21-752)
T3 sequence: T1 sequence with A394G, N404A

human C2 H451A = target: T4, human C2 H451A (human, UniProt P06681 21-752)
T4 sequence: T1 sequence with A394G, H431A

B1: RF16-226 (antibody, human IgG4 S228P, lambda)
heavy: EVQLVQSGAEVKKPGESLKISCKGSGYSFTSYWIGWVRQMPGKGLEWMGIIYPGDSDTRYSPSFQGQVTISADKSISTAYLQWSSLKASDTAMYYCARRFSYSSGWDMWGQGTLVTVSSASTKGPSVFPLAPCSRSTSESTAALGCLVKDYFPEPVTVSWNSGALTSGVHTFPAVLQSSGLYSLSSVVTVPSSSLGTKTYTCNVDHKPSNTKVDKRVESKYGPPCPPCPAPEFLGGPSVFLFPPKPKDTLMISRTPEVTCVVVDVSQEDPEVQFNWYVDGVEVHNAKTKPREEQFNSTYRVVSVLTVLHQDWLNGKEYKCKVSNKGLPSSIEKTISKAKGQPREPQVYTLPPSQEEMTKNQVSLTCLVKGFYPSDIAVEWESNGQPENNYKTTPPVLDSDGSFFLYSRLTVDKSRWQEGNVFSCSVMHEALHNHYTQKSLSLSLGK
light: SYELTQPPSVSVSPGQTARITCSGDALTSKYVAWYQQKSGLAPLLVIYEDTRRPSGIPAKFSGSSSGSVATLTISGAHGDDEADYYCYSTDASGHQRVFGGGTKLTVLSQPKAAPSVTLFPPSSEELQANKATLVCLISDFYPGAVTVAWKADGSPVKAGVETTKPSKQSNNKYAASSYLSLTPEQWKSHRSYSCQVTHEGSTVEKTVAPTECS
notes: pH-dependent anti-C2 antibody from a phage display library; also called WT
In the case of B1, the Kd (human C2 G414A) is reported as 11.2 nM, the Kd (human C2 D419A) is reported as 17.6 nM and the Kd (human C2 N424A) is reported as 3.2 nM. It also gave a Kd (human C2 H451A) of 105 nM.
